From patent US20070224205A1

Target: Toll-like Receptor 5 (UniProt O60602)
Experiment: cell-based or functional assay

B1: STF2.HA1-1His(PR8), produced in Baculovirus (protein)
chain: AQVINTNSLSLLTQNNLNKSQSALGTAIERLSSGLRINSAKDDAAGQAIANRFTANIKGLTQASRNANDGISIAQTTEGALNEINNNLQRVRELAVQSANSTNSQSDLDSIQAEITQRLNEIDRVSGQTQFNGVKVLAQDNTLTIQVGANDGETIDIDLKQINSQTLGLDSLNVQKAYDVKDTAVTTKAYANNGTTLDVSGLDDAAIKAATGGTNGTASVTGGAVKFDADNNKYFVTIGGFTGADAAKNGDYEVNVATDGTVTLAAGATKTTMPAGATTKTEVQELKDTPAVVSADAKNALIAGGVDATDANGAELVKMSYTDKNGKTIEGGYALKAGDKYYAADYDEATGAIKAKTTSYTAADGTTKTAANQLGGVDGKTEVVTIDGKTYNASKAAGHDFKAQPELAEAAAKTTENPLQKIDAALAQVDALRSDLGAVQNRFNSAITNLGNTVNNLSEARSRIEDSDYATEVSNMSRAQILQQAGTSVLAQANQVPQNVLSLLASGSGSGSSHNGKLCRLKGIAPLQLGKCNIAGWLLGNPECDPLLPVRSWSYIVETPNSENGICYPGDFIDYEELREQLSSVSSFERFEIFPKESSWPNHNTNGVTAACSHEGKSSFYRNLLWLTEKEGSYPKLKNSYVNKKGKEVLVLWGIHHPPNSKEQQNLYQNENAYVSVVTSNYNRRFTPEIAERPKVRDQAGRMNYYWTLLKPGDTIIFEANGNLIAPMYAFALSRGFGSGIITSNASMHECNTKCQTPLGAINSSLPYQNIHPVTIGECPKYVRHHHHHH
TLR activity (EC50, ng/ml); IL-8 secretion by HEK293 cells: 3 ng/mL
